Source: US20230167164A1 (IMMUNOWAKE, published 2023)

Biological target: T1, human IL-2 receptor (human, UniProt P01589 22-272; P14784 27-551; P31785 23-369)
T1 construct: whole, on cells; also called IL-2Rα, IL-2Rβ, IL-2Rγ; HEK-Blue IL-2 cells
T1 sequence (looked up) 1: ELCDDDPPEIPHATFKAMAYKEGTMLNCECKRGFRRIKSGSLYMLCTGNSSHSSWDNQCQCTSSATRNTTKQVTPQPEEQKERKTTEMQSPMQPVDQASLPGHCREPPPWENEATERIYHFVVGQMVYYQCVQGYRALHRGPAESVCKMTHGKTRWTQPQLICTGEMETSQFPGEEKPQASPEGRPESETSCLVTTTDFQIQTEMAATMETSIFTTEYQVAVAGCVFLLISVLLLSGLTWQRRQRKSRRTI
T1 sequence (looked up) 2: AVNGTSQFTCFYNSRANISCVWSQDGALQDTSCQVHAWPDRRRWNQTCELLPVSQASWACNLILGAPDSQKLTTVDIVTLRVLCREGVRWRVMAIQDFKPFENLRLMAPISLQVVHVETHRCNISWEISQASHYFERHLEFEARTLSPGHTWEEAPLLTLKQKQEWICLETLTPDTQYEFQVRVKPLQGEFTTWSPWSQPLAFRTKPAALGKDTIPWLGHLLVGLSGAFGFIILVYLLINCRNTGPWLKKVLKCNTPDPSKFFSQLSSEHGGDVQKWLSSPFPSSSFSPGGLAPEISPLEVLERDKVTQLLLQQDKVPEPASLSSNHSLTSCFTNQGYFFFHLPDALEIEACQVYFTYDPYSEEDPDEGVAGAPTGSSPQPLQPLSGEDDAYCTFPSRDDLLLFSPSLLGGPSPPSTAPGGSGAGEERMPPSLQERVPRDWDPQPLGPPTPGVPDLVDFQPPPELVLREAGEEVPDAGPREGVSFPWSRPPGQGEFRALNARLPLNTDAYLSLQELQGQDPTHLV
T1 sequence (looked up) 3: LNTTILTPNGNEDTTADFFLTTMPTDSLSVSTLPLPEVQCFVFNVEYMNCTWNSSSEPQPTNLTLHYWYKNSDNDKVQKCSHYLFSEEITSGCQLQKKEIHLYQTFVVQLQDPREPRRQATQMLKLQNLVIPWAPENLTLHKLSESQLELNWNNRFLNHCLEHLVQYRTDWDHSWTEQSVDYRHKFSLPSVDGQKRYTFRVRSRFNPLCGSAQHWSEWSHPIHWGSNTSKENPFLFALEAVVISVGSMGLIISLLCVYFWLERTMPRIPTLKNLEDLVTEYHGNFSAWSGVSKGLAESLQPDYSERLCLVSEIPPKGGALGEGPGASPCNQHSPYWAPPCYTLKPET
Assay: FACS on HEK-Blue IL-2 cells (IL-2 receptor, no PD-1)

- binding result: no binding
B1: ligand-IL-2 mutant-PD-L2-Fc (Fc fusion)
chain 1: LFTVTVPKELYIIEHGSNVTLECNFDTGSHVNLGAITASLQKVENDTSPHRERATLLEEQLPLGKASFHIPQVQVRDEGQYQCIIIYGVAWDYKYLTLKVKASYRKINTHILKVPETDEVELTCQATGYPLAEVSWPNVSVPANTSHSRTPEGLYQVTSVLRLKPPPGRNFSCVFWNTHVRELTLASIDLQSQMEPRTHPTGGGGSAPTSSSTKKTQLQLEHLLLDLQMILNGINNYKNPKLTDMLTFEFYMPKKATELKHLQCLERELKPLEEVLNLAQSKNFHLRPRDLISNINVIVLELKGSETTFMCEYADETATIVEFLNRWITFCQSIISTLTDKTHTCPPCPAPEDEGGPSVFLFPPKPKDTLMISRTPEVTCVVVDVSHEDPEVKFNWYVDGVEVHNAKTKPREEQYNSTYRVVSVLTVLHQDWLNGKEYKCKVSNKALPAPIEKTISKAKGQPREPQVYVYPPSREEMTKNQVSLTCLVKGFYPSDIAVEWESNGQPENNYKTTPPVLDEDGSFALVSKLTVDKSRWQQGNVFSCSVMHEALHNHYTQKSLSLSPGK
chain 2: LFTVTVPKELYIIEHGSNVTLECNFDTGSHVNLGAITASLQKVENDTSPHRERATLLEEQLPLGKASFHIPQVQVRDEGQYQCIIIYGVAWDYKYLTLKVKASYRKINTHILKVPETDEVELTCQATGYPLAEVSWPNVSVPANTSHSRTPEGLYQVTSVLRLKPPPGRNFSCVFWNTHVRELTLASIDLQSQMEPRTHPTGGGGSDKTHTCPPCPAPEKKGGPSVFLFPPKPKDTLMISRTPEVTCVVVDVSHEDPEVKFNWYVDGVEVHNAKTKPREEQYNSTYRVVSVLTVLHQDWLNGKEYKCKVSNKALPAPIEKTISKAKGQPREPQVYVLPPSREEMTKNQVSLLCLVKGFYPSDIAVEWESNGQPENRYMTWPPVLDSDGSFFLYSKLTVDKSRWQQGNVFSCSVMHEALHNHYTQKSLSLSPGK
notes: also called IL-2(R38D/K43E/E61R)/PD-L2-Fc immunocytokine; construct #11
